The source of these data is the nanobody polyreactivity screen of Harvey et al. (2022).

The data set is described as follows: yeast display, Sf9 membrane polyspecificity reagent, FACS + sequencing; frameworks hold sequencing errors. In outline:
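Genes from sorted yeast were amplified by colony PCR, read by MiSeq 2 × 250 sequencing and filtered on CDR length. These cells carried a synthetic nanobody library in Saccharomyces cerevisiae BJ5465 and were sorted by FACS into low and high (top ~1%) gates on anti-HA and streptavidin fluorescence. Polyreactivity is labelled according to the gate of origin.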
As for “QVQLVESGGGLVQAGGSHRLSCAATGIIFARNAMGWYRQAPGKERELVAGINGGRTNYADSVKGRFTISRDNAKNTVYLQMNSLKPEDTAVYYCAARLGRVKYDHWGQGTQVTVSS”, the “polyreactivity (PSR sort gate)” value is recorded as “high polyreactivity”.

Take “QVQLVESGGGLVQAGGSHRLSCDASGRIFGPYAMGWYRQAPGKESELVATISWRGARTYYADSVKGRFTISRDNAKNTVYLQMNSLKPEDTAVDYCAATFYYSARFDYWGQGTQVTVSS”: the “polyreactivity (PSR sort gate)” value is on record as “high polyreactivity”.

Regarding “QVQLVESGGGLVQAGGSHRLSCSASGRIFGLYAMGWYRQAPGKERELVAAITSSTGSTYYADSVKGRFTISRDNAKNTVYLQMNSLKPEDTAVYYCAADLYSPSIYGYIYYTWLDYWGQGTQVTVSS”, the “polyreactivity (PSR sort gate)” value is “high polyreactivity”.

Turning to “QVQLVESGGGLVQAGGSHRLSSAASARTFQDNPMGWYRQAPGKERELVAAISWRGGSTNYADSVKGRFTITRDNAKNTVYLQMNSLKPEDTAVYYCTRDRRKYGKLDYWGQGTQVTVSS”, the “polyreactivity (PSR sort gate)” value was “low polyreactivity”.

For the sequence “QVQLVESGGGLVQAGGSHSLSCAASGSTFKHYAMGWYRQAPGKERELVAAISWGGVNTDYADSVKGRFTISRDNAKNTVYLQMNSLNPEDTAVYYCAAGRWSVGTYDYWGQGTQVTVSS”, the “polyreactivity (PSR sort gate)” value is “low polyreactivity”.

For the sequence “QVQLVESGGGLVQAGGSIPLSCAASGIIFYYNTMGWYRQAPGKERELVATSTASDGSTYADSVKGRFTISSDNAKNTVYLQMNRLKPEDTAVYYCNADTRTQGPFSAPYYREMNYWGQGSQVTVSS”, the “polyreactivity (PSR sort gate)” value was “low polyreactivity”.

For “QVQLVESGGGLVQAGGSIRLSCAASGFIFYVYAMGRSRQAPGKERELVAAISGGGDSTYYADSVKGRFTTSRDNAKNTVYLQMNSLKPEDTAVYYCATRRYPEVVNGESGYWGQGTQVTVSS”, the “polyreactivity (PSR sort gate)” value was “low polyreactivity”.

As to “QVQLVESGGGLVQAGGSIRLSCAASGFTITHYAMGWYRQAPGKERELVAAISASGGSTYYADSVKGRFTISRDNAKYTVYVQMNSLKPEDTAVYYCAATWDYRRGRYPYDYWGQGTQVTVSS”, the “polyreactivity (PSR sort gate)” value is reported as “high polyreactivity”.

Take “QVQLVESGGGLVQAGGSIRLSCAASGGTFGYYVMGWYRQAPRKERELVAAITSGGSTKYADSVKGRFTISRDNAKNTVYLQMNSLKPEDTAVYYCAADVTRREPYQSYDYWGQGTQVTVSS”: the “polyreactivity (PSR sort gate)” value is “low polyreactivity”.

Consider “QVQLVESGGGLVQAGGSIRLSCAASGNTFRWYAMGWYRQAPGKEREFVAAISSSGGSTYYADSVKGRFTISRDNAKNTVYLQMNSLKPEDTAVYYCNAASVTRHVSFATDYEYWGQGTQVTVSS”, for which the “polyreactivity (PSR sort gate)” value is “high polyreactivity”.

Consider “QVQLVESGGGLVQAGGSIRLSCAASGNTFVLYTMGWYRQAPGKERELVAAISGRGTNTYYADSVKGRFTISRDNAKNTVYLQMNSLKPEDTAVYYCAARYKTLVTDYEYWGQGTQVTVSS”, for which the “polyreactivity (PSR sort gate)” value is on record as “high polyreactivity”.

On to “QVQLVESGGGLVQAGGSIRLSCAASGRIFKAYAMGWYRQAPGKERELVAAITRGGRTKYADSVKGRFTLSRDNAKNTVYLQMNSLKPEYTAVYYCNPPRGVLYDYWGHGTQVTVSS”, for which the “polyreactivity (PSR sort gate)” value is “high polyreactivity”.

In the case of “QVQLVESGGGLVQAGGSIRLSCAASGRIFRYNAMGWYRQAPGKERELVAAISGSGDRTYYADSVKGRFTISRDTAKNTVYLQMNSLKPEDTAVYDCAADVVWRQYGSWFYYWGQGTQVTVSS”, the “polyreactivity (PSR sort gate)” value is reported as “high polyreactivity”.

On to “QVQLVESGGGLVQAGGSIRLSCAASGRILYYYVMGWYRQAPGKERELVAAITRGGSTDYADSVKGRFTISRDNAKNTVYLQMNSLKPEDTAVFYCAVPSWPFWVRVEGDYWGQGTQVSVSS”, for which the “polyreactivity (PSR sort gate)” value is given as “low polyreactivity”.

“QVQLVESGGGLVQAGGSIRLSCAASGRTFDPYSRGWYRQAPGKERELVAAISRSGGSTYYADSVKGRFTISRDNAKNTVYLQLNSLKPEDTAVYYFDADASRYYYEYDYWGQGTQVNVSS”: the “polyreactivity (PSR sort gate)” value is recorded as “high polyreactivity”.

On to “QVQLVESGGGLVQAGGSIRLSCAASGRTFPVNAMGWYRQAPGKERELVAAITTNGGRTYYADSVKGRFTISRDNEKNTVYLQMNSLKPEDTAVYYCATGAYTDKRYGYWGQGTQVTVSS”, for which the “polyreactivity (PSR sort gate)” value is on record as “high polyreactivity”.
